# B1: Catenin beta-1 (Homo sapiens), P35222 (parent)
# chain: MATQADLMELDMAMEPDRKAAVSHWQQQSYLDSGIHSGATTTAPSLSGKGNPEEEDVDTSQVLYEWEQGFSQSFTQEQVADIDGQYAMTRAQRVRAAMFPETLDEGMQIPSTQFDAAHPTNVQRLAEPSQMLKHAVVNLINYQDDAELATRAIPELTKLLNDEDQVVVNKAAVMVHQLSKKEASRHAIMRSPQMVSAIVRTMQNTNDVETARCTAGTLHNLSHHREGLLAIFKSGGIPALVKMLGSPVDSVLFYAITTLHNLLLHQEGAKMAVRLAGGLQKMVALLNKTNVKFLAITTDCLQILAYGNQESKLIILASGGPQALVNIMRTYTYEKLLWTTSRVLKVLSVCSSNKPAIVEAGGMQALGLHLTDPSQRLVQNCLWTLRNLSDAATKQEGMEGLLGTLVQLLGSDDINVVTCAAGILSNLTCNNYKNKMMVCQVGGIEALVRTVLRAGDREDITEPAICALRHLTSRHQEAEMAQNAVRLHYGLPVVVKLLHPPSHWPLIKATVGLIRNLALCPANHAPLREQGAIPRLVQLLVRAHQDTQRRTSMGGTQQQFVEGVRMEEIVEGCTGALHILARDVHNRIVIRGLNTIPLFVQLLYSPIENIQRVAAGVLCELAQDKEAAEAIEAEGATAPLTELLHSRNEGVATYAAAVLFRMSEDKPQDYKKRLSVELTSSLFRTEPMAWNETADLGLDIGAQGEPLGYRQDDPSYRSFHSGGYGQDALGMDPMMEHEMGGHHPGADYPVDGLPDLGHAQDLMDGLPPGDSNQLAWFDTDL
# partner: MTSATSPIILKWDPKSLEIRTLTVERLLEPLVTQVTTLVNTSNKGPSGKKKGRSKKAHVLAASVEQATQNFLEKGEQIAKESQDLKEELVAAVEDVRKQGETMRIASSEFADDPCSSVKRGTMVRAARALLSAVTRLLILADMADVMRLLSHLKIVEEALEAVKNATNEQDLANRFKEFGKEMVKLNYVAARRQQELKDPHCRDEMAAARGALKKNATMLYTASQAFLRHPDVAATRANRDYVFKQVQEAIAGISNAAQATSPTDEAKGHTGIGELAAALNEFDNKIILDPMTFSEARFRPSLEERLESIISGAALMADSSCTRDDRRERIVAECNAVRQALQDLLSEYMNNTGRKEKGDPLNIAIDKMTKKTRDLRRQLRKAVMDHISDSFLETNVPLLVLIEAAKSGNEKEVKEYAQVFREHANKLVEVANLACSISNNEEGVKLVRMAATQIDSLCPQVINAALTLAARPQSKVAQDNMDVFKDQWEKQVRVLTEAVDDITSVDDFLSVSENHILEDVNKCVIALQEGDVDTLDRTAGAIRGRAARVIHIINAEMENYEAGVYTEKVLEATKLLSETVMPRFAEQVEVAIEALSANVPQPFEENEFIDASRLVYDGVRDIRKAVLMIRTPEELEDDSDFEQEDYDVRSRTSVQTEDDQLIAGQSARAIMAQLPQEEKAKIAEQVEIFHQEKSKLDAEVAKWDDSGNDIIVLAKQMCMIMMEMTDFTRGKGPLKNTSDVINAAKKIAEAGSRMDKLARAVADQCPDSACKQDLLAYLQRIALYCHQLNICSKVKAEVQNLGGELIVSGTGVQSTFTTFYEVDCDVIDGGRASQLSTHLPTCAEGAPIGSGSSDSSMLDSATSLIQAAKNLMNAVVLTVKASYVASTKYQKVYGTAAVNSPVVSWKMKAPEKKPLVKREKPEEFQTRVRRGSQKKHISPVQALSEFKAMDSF
# Variants of: B1
# Settings: with ctna2_human CTNNA2, P26232
row,Variant,effect of a mutation on the interaction
1,L132A,disrupting interaction strength

# Reference: IntAct's records for PubMed 17679699
